# Reference: paper PMC5056641 (The Biochemical journal, 2014)
# B1: GST-N (CLK1 residues 1-160) (domain or fragment, mouse, UniProt P22518 1-160, looked up)
# chain: MRHSKRTYCPDWDERDWDYGTWRSSSSHKRKKRSHSSAREQKRCRYDHSKTTDSYYLESRSINEKAYHSRRYVDEYRNDYMGYEPGHPYGEPGSRYQMHSSKSSGRSGRSSYKSKHRSRHHTSQHHSHGKSHRRKRSRSVEDDEEGHLICQSGDVLSARY
# B2: His-N (CLK1 residues 1-160) (domain or fragment, mouse, UniProt P22518 1-160, looked up)
# chain: B1 chain
# Key:
# [1] = target: His-CLK1 (Cdc2-like kinase 1, mouse) (mouse, UniProt P22518 1-483); experiment: pull-down
# GST-SRSF1 = GST-SRSF1 (human, UniProt Q07955 1-248); experiment: pull-down
# Sequence of GST-SRSF1 (Q07955 whole entry): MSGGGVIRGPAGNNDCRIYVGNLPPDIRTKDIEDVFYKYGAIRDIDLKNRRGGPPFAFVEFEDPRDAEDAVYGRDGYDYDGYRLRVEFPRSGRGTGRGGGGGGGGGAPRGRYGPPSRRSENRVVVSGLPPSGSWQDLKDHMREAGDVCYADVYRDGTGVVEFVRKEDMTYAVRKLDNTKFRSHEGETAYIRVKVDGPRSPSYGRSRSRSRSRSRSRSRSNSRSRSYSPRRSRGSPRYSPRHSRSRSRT
Binder,binding result [1],binding result (GST-SRSF1)
B1,binds,–
B2,–,binds
